From patent US20190336544A1

Tests used:
[1] = target: IgG (coating control in the ELISA binding assays); test: ELISA; IgG coated, culture supernatant
[2] = target: T1, mouseCD47, coated on ELISA plates (mouse) (UniProt Q61735); test: ELISA; mCD47 coated, culture supernatant
T1 sequence (looked up): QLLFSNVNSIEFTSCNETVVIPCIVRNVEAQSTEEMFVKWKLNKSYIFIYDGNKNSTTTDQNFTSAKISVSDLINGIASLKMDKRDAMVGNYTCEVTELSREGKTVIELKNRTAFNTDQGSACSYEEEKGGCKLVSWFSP

ELISA signal (quantity not given) [1]: 0.067
ELISA signal (quantity not given) [2]: 0.527
B1: secreted anti-mCD47 scFv (αmCD47scFv-V5-HIS, SYN3161) (scFv, from a related filing)
scFv: QVKLLQSGAALVKPGASVKMSCQASGYSFTDYWVTWVKQSHGQSLEWIGEIYPSNTVTNFNDNFKGKATLTVDKSTSTAYMELSRLTSEDSAIYYCTRIGNSGYRVGWFIYWGQGTLVTVLSGGGGSGGGGSGGGGSDTVLTQSPALAVSPGERVTISCKASESVSSHMHWYQQKPGQQPKLLIYKASNLASGVPARFSGSGSGTDFTLTIDPVEADDTATYFCQQGWNGPFTFGAGTRLELKRADAAGSGELGGSGKPIPNPLLGLDSTGSGHHHHHH
